Laboratory results reported in paper PMC2712671.

Molecular target: His6-tagged MogR_(1-162) (Listeria monocytogenes) (UniProt P0DJO8)
Experiment: crystal structure

Substance: His6-tagged MogR_(1-162) (from UniProt P0DJO8 1-162) (domain or fragment)
- stoichiometry N: 2
